Experimental data taken from article PMC11677658.

Biological target: Aspergillus sydowii UBOCC-A-108050 SULT (Aspergillus sydowii UBOCC-A-108050)
Assay: SEC; calibrated size exclusion chromatography of the purified recombinant protein alone (self-association)

- stoichiometry N: 2
Substance: Aspergillus sydowii UBOCC-A-108050 SULT (enzyme)
